Data from the Immune Epitope Database (IEDB).

Tests used:
HLA-B*57:01 [1] = experiment: IEDB peptide-MHC binding, purified MHC/competitive/radioactivity; filed as Kd, often an IC50 or EC50 that approximates it; ≥ and ≤ were set here for values at or beyond the usual limits of such assays
HLA-B*15:01 [2] = experiment: IEDB peptide-MHC binding, purified MHC/competitive/fluorescence; ≥ and ≤ were set here for values at or beyond the usual limits of such assays
HLA-A*24:02 = experiment: as above
HLA-A*02:01 [3] = experiment: as above
HLA-B*46:01 [4] = experiment: IEDB peptide-MHC binding, purified MHC/competitive/fluorescence; filed as Kd, often an IC50 or EC50 that approximates it; ≥ and ≤ were set here for values at or beyond the usual limits of such assays
HLA-A*26:01 [5] = experiment: as above
HLA-B*57:01 [6] = experiment: as above
HLA-B*18:01 [7] = experiment: as above
HLA-B*27:03 = experiment: as above
HLA-C*03:03 = experiment: IEDB peptide-MHC binding, purified MHC/direct/fluorescence; filed as Kd, often an IC50 or EC50 that approximates it; ≥ and ≤ were set here for values at or beyond the usual limits of such assays
HLA-A*03:01 [8] = experiment: as above
HLA-A*02:01 [9] = experiment: as above; details: source organism: Reston ebolavirus
HLA-B*07:02 = experiment: IEDB peptide-MHC binding, purified MHC/competitive/fluorescence; ≥ and ≤ were set here for values at or beyond the usual limits of such assays
HLA-B*51:01 = experiment: IEDB peptide-MHC binding, purified MHC/competitive/fluorescence; filed as Kd, often an IC50 or EC50 that approximates it; ≥ and ≤ were set here for values at or beyond the usual limits of such assays; details: source organism: Salmonella enterica subsp. enterica serovar Typhi
HLA-A*02:19 = experiment: as above; details: source organism: Salmonella enterica subsp. enterica serovar Typhi
HLA-B*39:01 = experiment: as above; details: source organism: Salmonella enterica subsp. enterica serovar Typhi
HLA-B*15:01 [10] = experiment: as above
HLA-A*29:02 [11] = experiment: as above; details: source organism: Salmonella enterica subsp. enterica serovar Typhi
HLA-A*02:12 = experiment: as above; details: source organism: Salmonella enterica subsp. enterica serovar Typhi
HLA-A*03:01 [12] = experiment: as above; details: source organism: Salmonella enterica subsp. enterica serovar Typhi
HLA-A*02:11 = experiment: as above; details: source organism: Salmonella enterica subsp. enterica serovar Typhi
HLA-A*02:01 [13] = experiment: as above
HLA-A*02:03 = experiment: as above; details: source organism: Salmonella enterica subsp. enterica serovar Typhi
HLA-A*03:01 [14] = experiment: IEDB peptide-MHC binding, purified MHC/competitive/fluorescence; ≥ and ≤ were set here for values at or beyond the usual limits of such assays; details: source organism: Variola virus
HLA-A*11:01 [15] = experiment: as above; details: source organism: Variola virus
HLA-B*08:01 = experiment: IEDB peptide-MHC binding, purified MHC/direct/fluorescence; filed as Kd, often an IC50 or EC50 that approximates it; ≥ and ≤ were set here for values at or beyond the usual limits of such assays
HLA-A*69:01 = experiment: as above
HLA-A*31:01 = experiment: as above
HLA-A*26:01 [16] = experiment: as above; details: source organism: Escherichia coli O157:H7
HLA-B*27:05 = experiment: as above
HLA-B*15:17 = experiment: as above; details: source organism: Escherichia coli O157:H7
HLA-B*44:02 = experiment: as above; details: source organism: Escherichia coli O157:H7
HLA-B*57:01 [17] = experiment: as above
HLA-B*15:01 [18] = experiment: as above
HLA-B*40:01 = experiment: as above
HLA-A*01:01 = experiment: as above
HLA-A*11:01 [19] = experiment: as above
HLA-B*58:01 = experiment: as above
HLA-C*12:03 = experiment: as above; details: source organism: Homo sapiens
HLA-B*46:01 [20] = experiment: as above; details: source organism: Mycobacterium tuberculosis variant bovis
HLA-B*48:01 = experiment: as above; details: source organism: Mycobacterium tuberculosis variant bovis
HLA-A*29:02 [21] = experiment: as above; details: source organism: Mycobacterium tuberculosis variant bovis
HLA-B*18:01 [22] = experiment: as above; details: source organism: Mycobacterium tuberculosis variant bovis
HLA-C*05:01 = experiment: as above
[23] = source organism: Zaire ebolavirus
[24] = source organism: Sudan ebolavirus
[25] = source organism: Dengue virus 2 Jamaica/1409/1983
[26] = source organism: Salmonella enterica subsp. enterica serovar Typhi
[27] = source organism: Escherichia coli O157:H7
[28] = source organism: Shigella flexneri
[29] = source organism: Mycobacterium tuberculosis variant bovis
[30] = source organism: human gammaherpesvirus 4
[31] = source organism: Escherichia coli O139:H28 str. E24377A

AVFTEENQW gave a Kd (HLA-B*57:01 [1]; source organism: Dengue virus 3 Martinique/1243/1999) of 0.0495 µM.

ESSPNPTVEA gave a Kd (HLA-B*57:01 [1]; source organism: Dengue virus 2 Peru/IQT2913/1996) of 0.323 µM.

With FLSFASLFL the IC50 (HLA-B*15:01 [2]; [23]) was 8.79 µM, the IC50 (HLA-A*24:02; [23]) was 0.276 µM and the IC50 (HLA-A*02:01 [3]; [23]) was 0.0489 µM. The Kd (HLA-B*46:01 [4]; [23]) was no less than 20 µM, the Kd (HLA-A*26:01 [5]; [23]) was no less than 20 µM and the Kd (HLA-B*57:01 [6]; [23]) was no less than 20 µM. For the same sequence, the Kd (HLA-B*18:01 [7]; [23]) was no less than 20 µM, the Kd (HLA-B*27:03; [23]) was no less than 20 µM and the Kd (HLA-C*03:03; [23]) was 0.005 µM. The Kd (HLA-A*03:01 [8]; [23]) was no less than 20 µM and the Kd (HLA-A*02:01 [9]) was no more than 0.001 µM.

GLMHNQNAL showed an IC50 (HLA-B*15:01 [2]; [24]) of 11.5 µM, an IC50 (HLA-A*24:02; [24]) of 36.6 µM and an IC50 (HLA-A*02:01 [3]; [24]) of 3.85 µM. For the same sequence, the IC50 (HLA-B*07:02; [24]) was 12.4 µM.

GSSPILSITI was tested, and the Kd (HLA-B*57:01 [1]; [25]) was 0.114 µM.

HVTQHWPQL gave a Kd (HLA-B*51:01) of no less than 20 µM, a Kd (HLA-B*46:01 [4]; [26]) of no less than 20 µM and a Kd (HLA-A*02:19) of no less than 20 µM. The Kd (HLA-B*39:01) was no less than 20 µM, the Kd (HLA-B*57:01 [6]; [26]) was no less than 20 µM and the Kd (HLA-B*15:01 [10]; [26]) was no less than 20 µM. For the same sequence, the Kd (HLA-A*29:02 [11]) was no less than 20 µM, the Kd (HLA-B*18:01 [7]; [26]) was no less than 20 µM and the Kd (HLA-A*02:12) was 7.05 µM. It also gave a Kd (HLA-A*03:01 [12]) of no less than 20 µM, a Kd (HLA-A*02:11) of no less than 20 µM and a Kd (HLA-A*02:01 [13]; [26]) of no less than 20 µM. It also gave a Kd (HLA-A*02:03) of no less than 20 µM and a Kd (HLA-B*27:03; [26]) of no less than 20 µM.

IPLASLTPK showed an IC50 (HLA-A*24:02; source organism: Variola virus) of 22.1 µM, an IC50 (HLA-A*03:01 [14]) of 66.6 µM and an IC50 (HLA-A*11:01 [15]) of 6.66 µM. It also gave an IC50 (HLA-B*07:02; source organism: Variola virus) of 5.73 µM.

For ITIPIGLYL, the Kd (HLA-B*08:01; [27]) was no less than 20 µM, the Kd (HLA-C*03:03; source organism: Escherichia coli O157:H7 str. EDL933) was 0.094 µM and the Kd (HLA-A*69:01; [27]) was no less than 20 µM. The Kd (HLA-A*31:01; [27]) was no less than 20 µM, the Kd (HLA-A*26:01 [16]) was no less than 20 µM and the Kd (HLA-B*27:05; [27]) was no less than 20 µM. For the same sequence, the Kd (HLA-B*15:17) was 0.0018 µM, the Kd (HLA-B*44:02) was no less than 20 µM and the Kd (HLA-B*57:01 [17]; [27]) was 0.349 µM. The Kd (HLA-B*15:01 [18]; [28]) was 2.97 µM, the Kd (HLA-B*40:01; [27]) was no less than 20 µM and the Kd (HLA-A*01:01; [27]) was no less than 20 µM. For the same sequence, the Kd (HLA-A*03:01 [8]; [27]) was no less than 20 µM, the Kd (HLA-A*11:01 [19]; [27]) was no less than 20 µM and the Kd (HLA-B*58:01; [28]) was 0.0101 µM.

Work on KAFQDVLYV yielded a Kd (HLA-C*12:03) of no more than 0.001 µM.

Work on KTKLTDWDF yielded a Kd (HLA-B*57:01 [1]; source organism: Dengue virus 4 Philippines/H241/1956) of 0.132 µM.

LGKSYAQMW showed a Kd (HLA-B*57:01 [1]; [25]) of 0.0927 µM.

NIKRTLAAM was tested, and the IC50 (HLA-A*02:01 [3]; [23]) was no less than 458 µM and the IC50 (HLA-B*07:02; [23]) was no less than 128 µM.

In the case of PMQQLTQPL, the Kd (HLA-B*08:01; [29]) is reported as no less than 20 µM, the Kd (HLA-B*46:01 [20]) is reported as no less than 20 µM and the Kd (HLA-A*69:01; [29]) is reported as no less than 20 µM. For the same sequence, the Kd (HLA-A*31:01; [29]) was no less than 20 µM, the Kd (HLA-B*48:01) was no less than 20 µM and the Kd (HLA-B*27:05; [29]) was no less than 20 µM. The Kd (HLA-B*57:01 [17]; [29]) was no less than 20 µM, the Kd (HLA-B*15:01 [18]; [29]) was no less than 20 µM and the Kd (HLA-A*29:02 [21]) was no less than 20 µM. The Kd (HLA-B*40:01; [29]) was no less than 20 µM, the Kd (HLA-B*18:01 [22]) was no less than 20 µM and the Kd (HLA-A*01:01; [29]) was no less than 20 µM. It also gave a Kd (HLA-A*03:01 [8]; [29]) of no less than 20 µM, a Kd (HLA-A*11:01 [19]; [29]) of no less than 20 µM and a Kd (HLA-B*58:01; [29]) of no less than 20 µM.

For PTAGILARW, the Kd (HLA-B*57:01 [1]; source organism: Dengue virus 1 Brazil/97-11/1997) was 0.0127 µM.

Work on RVGRVNPGT yielded an IC50 (HLA-A*02:01 [3]; source organism: Variola virus) of 11.4 µM and an IC50 (HLA-B*07:02; source organism: Variola virus) of 21.4 µM.

For SLDDYNHLV, the Kd (HLA-C*03:03; source organism: Homo sapiens) was no less than 20 µM and the Kd (HLA-C*05:01; source organism: Homo sapiens) was 0.278 µM.

Work on YSQGAFTPL yielded a Kd (HLA-C*03:03; [30]) of no more than 0.001 µM and a Kd (HLA-C*05:01; [30]) of 3.08 µM.

YTILNRKAI was tested, and the IC50 (HLA-A*24:02; [24]) was 9.02 µM, the IC50 (HLA-A*02:01 [3]; [24]) was no less than 226 µM and the IC50 (HLA-B*07:02; [24]) was 20.1 µM.

In the case of YVVWLMFSL, the Kd (HLA-A*26:01 [5]; [31]) is reported as no less than 20 µM, the Kd (HLA-B*15:01 [10]; [31]) is reported as no less than 20 µM and the Kd (HLA-A*02:01 [13]; [31]) is reported as 0.312 µM. For the same sequence, the Kd (HLA-C*03:03; [31]) was 2.19 µM.
